Results: PMC7337490, “Molecular basis of MKLP2-dependent Aurora B transport from chromatin to the anaphase central spindle”

B1: centromeric alpha-satellite consensus 40 bp (dsDNA)
DNA 1: ATTCAACTCACAGAGTTGAACCTTCCTTTTCATAGAGCAG
DNA 2: CTGCTCTATGAAAAGGAAGGTTCAACTCTGTGAGTTGAAT
B2: non-alpha-satellite 40 bp (dsDNA)
DNA 1: ATTCCATGGCACCGTCAAGGCTGAGAACGGGAAGCTTGTC
DNA 2: GACAAGCTTCCCGTTCTCAGCCTTGACGGTGCCATGGAAT

How the values were obtained:
Details in all cases: protein: recombinant;recombinant;recombinant; tags: N-terminal His (tag cleavage stated for complex);;His6-GST, cleaved by HRV 3C; copies: 1;1;1; label: Alexa 488 on forward strand; blunt
[1] = target: survivin;borealin 10-109;INCENP 1-80 T59E (CPI80T59E) (human;human;human, UniProt O15392;Q53HL2;Q9NQS7 1-142;10-109;1-80, ||T59E); test: MST; Kd not calculable per legend; 100 mM NaCl, 20 mM Tris-HCl pH 7.4, 1 mM DTT, 2 h on ice; MST 0.04 uM duplex, 0.1-200 uM protein; EMSA 0.15 pmol plasmid in 20 ul, 0.8% agarose
survivin;borealin 10-109;INCENP 1-80 T59E (CPI80T59E), sequence (O15392 whole entry, chain 1 of 3): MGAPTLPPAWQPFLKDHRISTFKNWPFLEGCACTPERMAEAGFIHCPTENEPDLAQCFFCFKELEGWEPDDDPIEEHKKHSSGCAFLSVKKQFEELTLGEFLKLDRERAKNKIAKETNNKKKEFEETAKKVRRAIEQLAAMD
survivin;borealin 10-109;INCENP 1-80 T59E (CPI80T59E), sequence (Q53HL2 10-109, chain 2 of 3): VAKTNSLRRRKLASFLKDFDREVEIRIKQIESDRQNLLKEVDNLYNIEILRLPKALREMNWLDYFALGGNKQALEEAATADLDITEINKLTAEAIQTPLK
survivin;borealin 10-109;INCENP 1-80 T59E (CPI80T59E), sequence (Q9NQS7 1-80 T59E, chain 3 of 3): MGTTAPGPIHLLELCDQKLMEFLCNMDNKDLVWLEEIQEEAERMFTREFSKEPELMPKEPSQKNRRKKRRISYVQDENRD

[2] = target: survivin;borealin 10-109;INCENP 1-80 (CPI80) (human;human;human, UniProt O15392;Q53HL2;Q9NQS7 1-142;10-109;1-80, ||); test: MST; 100 mM NaCl, 20 mM Tris-HCl pH 7.4, 1 mM DTT, 2 h on ice; MST 0.04 uM duplex, 0.1-200 uM protein; EMSA 0.15 pmol plasmid in 20 ul, 0.8% agarose
survivin;borealin 10-109;INCENP 1-80 (CPI80), sequence (O15392 whole entry, chain 1 of 3): as the sequence (O15392 whole entry, chain 1 of 3) above
survivin;borealin 10-109;INCENP 1-80 (CPI80), sequence (Q53HL2 10-109, chain 2 of 3): as the sequence (Q53HL2 10-109, chain 2 of 3) above
survivin;borealin 10-109;INCENP 1-80 (CPI80), sequence (Q9NQS7 1-80, chain 3 of 3): as the sequence (Q9NQS7 1-80 T59E, chain 3 of 3) above, with E59T counted along it

[3] = target: survivin;borealin 10-109;INCENP 1-80 RRKKRR (CPI80RRKKRR) (human;human;human, UniProt O15392;Q53HL2;Q9NQS7 1-142;10-109;1-80, ||R65A;R66A;K67A;K68A;R69A;R70A); test: MST; up to 200 uM; 100 mM NaCl, 20 mM Tris-HCl pH 7.4, 1 mM DTT, 2 h on ice; MST 0.04 uM duplex, 0.1-200 uM protein; EMSA 0.15 pmol plasmid in 20 ul, 0.8% agarose
survivin;borealin 10-109;INCENP 1-80 RRKKRR (CPI80RRKKRR), sequence (O15392 whole entry, chain 1 of 3): as the sequence (O15392 whole entry, chain 1 of 3) above
survivin;borealin 10-109;INCENP 1-80 RRKKRR (CPI80RRKKRR), sequence (Q53HL2 10-109, stated change not applied, chain 2 of 3): as the sequence (Q53HL2 10-109, chain 2 of 3) above
survivin;borealin 10-109;INCENP 1-80 RRKKRR (CPI80RRKKRR), sequence (Q9NQS7 1-80 R65A/R66A/K67A/K68A/R69A/R70A, chain 3 of 3): as the sequence (Q9NQS7 1-80 T59E, chain 3 of 3) above, with E59T, R65A, R66A, K67A, K68A, R69A, R70A counted along it

[4] = target: survivin;borealin 10-109;INCENP 1-58 (CPI58) (human;human;human, UniProt O15392;Q53HL2;Q9NQS7 1-142;10-109;1-58, ||); test: as above
survivin;borealin 10-109;INCENP 1-58 (CPI58), sequence (O15392 whole entry, chain 1 of 3): as the sequence (O15392 whole entry, chain 1 of 3) above
survivin;borealin 10-109;INCENP 1-58 (CPI58), sequence (Q53HL2 10-109, chain 2 of 3): as the sequence (Q53HL2 10-109, chain 2 of 3) above
survivin;borealin 10-109;INCENP 1-58 (CPI58), sequence (Q9NQS7 1-58, chain 3 of 3): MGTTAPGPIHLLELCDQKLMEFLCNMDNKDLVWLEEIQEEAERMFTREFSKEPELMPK

Binder	binding signal [1]	Kd [2] [µM]	binding result [3]	binding result [4]
B1	~2 fold lower affinity than CPI80	23.6 ± 1.6	no binding	no binding
B2	~2 fold lower affinity than CPI80	29.7 ± 1.6	no binding	no binding
